Source: patent US20240117030A1 (Pfizer, published 2024)

What was measured:
Assay in all cases: cell-based or functional assay
IL-33 mm2 = molecular target: T1, IL-33 mm2 (human, UniProt O95760 112-270, limits assumed)
T1 sequence (looked up): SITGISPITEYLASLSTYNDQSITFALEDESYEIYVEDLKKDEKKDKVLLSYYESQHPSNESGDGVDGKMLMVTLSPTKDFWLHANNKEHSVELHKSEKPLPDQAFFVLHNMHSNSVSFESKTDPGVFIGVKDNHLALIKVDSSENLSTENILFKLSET

recombinant human IL-13 = recombinant human IL-13 (human, UniProt P35225 35-146)
recombinant human IL-4 [1] = molecular target: T2, recombinant human IL-4 (human, UniProt P05112 25-153)
T2 sequence (looked up): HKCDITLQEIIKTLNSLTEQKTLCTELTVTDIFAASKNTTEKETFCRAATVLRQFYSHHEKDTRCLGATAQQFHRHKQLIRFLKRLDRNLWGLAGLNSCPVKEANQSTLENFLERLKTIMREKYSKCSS

recombinant human IL-4 [2] = molecular target: T2, recombinant human IL-4; remark: listed apart in the source
recombinant human IL-4 [3] = molecular target: T2, recombinant human IL-4; remark: listed apart in the source

recombinant human IL-13, sequence (P35225 35-146 limits assumed): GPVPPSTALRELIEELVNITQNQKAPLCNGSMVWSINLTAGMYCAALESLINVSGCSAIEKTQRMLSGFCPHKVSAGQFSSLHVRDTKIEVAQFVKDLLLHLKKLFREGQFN

B1: IL13433-0607 (other)
heavy: EVQLVESGGGLVQPGGSLRLSCAASGFTFSSYAMSWVRQAPGKGLEWVASISTGDTTYYPDSVKGRFTISRDNAKNSLYLQMNSLRAEDTAVYYCARNEGYYFGLTQWGRGTLVTVSSASTKGPSVFPKAPSSKSTSGGTAALGCLVKDYFPEPVTVSWNSGALTSGVHTFPAVLQSSGLYSLSSSVTVPSSSLGTQTYICNVNHKPSNTKVDKKVEPKSCDKTHTCPPCPAPEAAGAPSVFLFPPKPKDTLMISRTPEVTCVVVDVSHEDPEVKFNWYVDGVEVHNAKTKPREEQYNSTYRVVSVLTVLHQDWLNGKEYKCKVSNKALPAPIEKTISKAKGQPREPQVCTLPPSREEMTKNQVSLWCLVKGFYPSDIAVEWESNGQPENNYKTTPPVLDSDGSFFLYSKLTVDKSRWQQGNVFSCSVLHEALHSHYTQKSLSLSPGK
chain 1: DIQMTQSPSSLSASVGDRVTITCRASQPISKHLDWYQQKPGKAPKLLIYFTNNLQTGVPSRFSGSGSGTDFTLTISSLQPEDFATYYCFQYNQGWTFGGGTKVEIKRTVAAPSVFIFPPSDEQLKSGTASVVCLLNNFYPREAKVQWKVDNALQSGNSQESVTEQDSKDSTYSLSSTLTLSKADYEKHKVYACEVTHQGLSSPVTKSFNRGECGGGGSEVTLRESGPALVKPTQTLTLTCTFSGFSLSNFGEGLSWIRQPPGKGLEWLAHIYWDDDKRYSTSLKTRLTISKDTSRNQVVLTMTNMDPVDTATYYCARRETVFYWYFDVWGQGTTVTVSSASTKGPSVFPEAPSSKSTSGGTAALGCLVKDYFPEPVTVSWNSGALTSGVHTFPAVLQSSGLYSLGSVVTVPSSSLGTQTYICNVNHKPSNTKVDKKVEPKSCDKTHTCPPCPAPEAAGAPSVFLFPPKPKDTLMISRTPEVTCVVVDVSHEDPEVKFNWYVDGVEVHNAKTKPREEQYNSTYRVVSVLTVLHQDWLNGKEYKCKVSNKALPAPIEKTISKAKGQPREPQVYTLPPCREEMTKNQVSLSCAVKGFYPSDIAVEWESNGQPENNYKTTPPVLDSDGSFFLVSKLTVDKSRWQQGNVFSCSVLHEALHSHYTQKSLSLSPGK
light 1: DIQMTQSPSSLSASVGDRVTITCRASESVDHFGWSLVHWYQQKPGKAPKLLIYRADSLETGVPSRFSGSGSGTDFTLTISSLQPEDFATYYCQQSNEDPWTFGGGTKVEIKRTVAAPSVFIFPPSDEQLKSGTASVSCLLNNFYPREAKVQWKVDNALQSGNSQESVTEQDSKDSTYSLDSTLTLSKADYEKHKVYACEVTHQGLSSPVTKSFNRGEC
light 2: DIQMTQSPSSLSASVGDRVTITCRASQSVDEEGDSYMNWYQQKPGKAPKLLIYAASNLESGVPSRFSGSGSGTDFTLTISSLQPEDFATYYCQQSHKDPPTFGGGTKVEIKRTVAAPSVFIFPPSDEQLKSGTASVSCLLNNFYPREAKVQWKVDNALQSGNSQESVTEQDSKDSTYSLKSTLTLSKADYEKHKVYACEVTHQGLSSPVTKSFNRGEC
chain 2: EVQLVESGGGLVQPGGSLRLSCAASGFTFSSYWMYWVRQAPGKGLEWVAAITPNAGEDYYPESVKGRFTISRDNAKNSLYLQMNSLRAEDTAVYYCARGHYYYTSYSLGYWGQGTLVTVSSASTKGPSVFPLAPSSKSTSGGTAALGCLVKDYFPEPVTVSWNSGALTSGVHTFPAVLQSSGLYSLSSVVTVPSSSLGTQTYICNVNHKPSNTKVDKKVEPKSC
In the case of B1, the “IL-33 mm2 Cys Activation of SEAP Reporter Cells, potency of cytokine neutralization” value (IL-33 mm2) is reported as 182 pM, the “IL-13 Induced CD23 Expression, potency of cytokine neutralization” value (recombinant human IL-13) is reported as 20.3 pM and the “IL-4 Induced CD23 Expression, potency of cytokine neutralization” value (recombinant human IL-4 [1]) is reported as 66.9 pM.

B2: IL4-0002 (antibody, human IgG1, kappa)
heavy: EVTLRESGPALVKPTQTLTLTCTFSGFSLSNFGEGLSWIRQPPGKGLEWLAHIYWDDDKRYNPSLKSRLTISKDTSRNQVVLTMTNMDPVDTATYYCARRETVFYWYFDVWGQGTTVTVSSASTKGPSVFPLAPSSKSTSGGTAALGCLVKDYFPEPVTVSWNSGALTSGVHTFPAVLQSSGLYSLSSVVTVPSSSLGTQTYICNVNHKPSNTKVDKKVEPKSCDKTHTCPPCPAPEAAGAPSVFLFPPKPKDTLMISRTPEVTCVVVDVSHEDPEVKFNWYVDGVEVHNAKTKPREEQYNSTYRVVSVLTVLHQDWLNGKEYKCKVSNKALPAPIEKTISKAKGQPREPQVYTLPPSREEMTKNQVSLTCLVKGFYPSDIAVEWESNGQPENNYKTTPPVLDSDGSFFLYSKLTVDKSRWQQGNVFSCSVMHEALHNHYTQKSLSLSPGK
light: DIQMTQSPSSLSASVGDRVTITCKASQSVDEDGDSYMNWYQQKPGKAPKLLIYAASNLESGVPSRFSGSGSGTDFTLTISSLQPEDFATYYCQQSNEDPPTFGGGTKVEIKRTVAAPSVFIFPPSDEQLKSGTASVVCLLNNFYPREAKVQWKVDNALQSGNSQESVTEQDSKDSTYSLSSTLTLSKADYEKHKVYACEVTHQGLSSPVTKSFNRGEC
For B2, the “IL-4 induced CD23 upregulation (IC50), parental IgG” value (recombinant human IL-4 [2]) was 2.06 pM and the “IC50 (median), IL-4 induced CD23 expression on human monocytes” value (recombinant human IL-4 [3]) was 2.09 pM.

B3: IL4-1040 (antibody, human IgG1, kappa, V domains shown)
VH: EVTLRESGPALVKPTQTLTLTCTFSGFSLSNFGEGLSWIRQPPGKGLEWLAHIYWDDDKRYNPSLKSRLTISKDTSRNQVVLTMTNMDPVDTATYYCARRETVFYWYFDVWGQGTTVTVSS
VL: DIQMTQSPSSLSASVGDRVTITCRASQSVDEEGDSYMNWYQQKPGKAPKLLIYAASNLESGVPSRFSGSGSGTDFTLTISSLQPEDFATYYCQQSNKDPPTFGGGTKVEIKR
With B3 the “IL-4 induced CD23 upregulation (IC50), parental IgG” value (recombinant human IL-4 [2]) was 3.23 pM and the “IC50 (median), IL-4 induced CD23 expression on human monocytes” value (recombinant human IL-4 [3]) was 3.23 pM.
